T1: His6-Hs.USP18 (16-372) (human, UniProt Q9UMW8 16-372)
T1 construct: ubiquitin-specific protease 18 (USP18), human, residues 16-372; Expressed as MBP-tev-His6-USP18 from pDest-795 (Addgene 161881 is the vector); the TEV site was cut, His6 stays; also called human USP18; recombinant human USP18; source: insect cells (baculovirus), purified (IMAC, TEV digest, second IMAC); not shown: MBP, N-terminal, cleaved; His6, N-terminal, kept
T1 sequence (looked up): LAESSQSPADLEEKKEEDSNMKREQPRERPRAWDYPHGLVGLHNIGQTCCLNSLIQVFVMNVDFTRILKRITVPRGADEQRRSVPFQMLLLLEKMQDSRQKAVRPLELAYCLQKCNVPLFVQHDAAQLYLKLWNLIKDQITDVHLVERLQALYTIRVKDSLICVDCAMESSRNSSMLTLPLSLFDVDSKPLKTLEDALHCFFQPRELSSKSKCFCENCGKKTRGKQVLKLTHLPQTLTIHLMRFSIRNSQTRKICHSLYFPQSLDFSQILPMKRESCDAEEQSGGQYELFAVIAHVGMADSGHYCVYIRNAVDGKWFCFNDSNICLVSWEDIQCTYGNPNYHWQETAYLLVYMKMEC

T2: His6-Mm.USP18 (46-368) (mouse, UniProt Q9WTV6 46-368)
T2 construct: ubiquitin-specific protease 18 (USP18), mouse, residues 46-368; Expressed as MBP-tev-His6-USP18 from pDest-795 (Addgene 161881 is the vector); the TEV site ENLYFQG was cut, His6 stays and serves for capture on the NTA chip; also called mouse USP18; recombinant mouse USP18; source: insect cells (baculovirus), purified (IMAC, TEV digest, second IMAC); not shown: MBP, N-terminal, cleaved; His6, …
T2 sequence (looked up): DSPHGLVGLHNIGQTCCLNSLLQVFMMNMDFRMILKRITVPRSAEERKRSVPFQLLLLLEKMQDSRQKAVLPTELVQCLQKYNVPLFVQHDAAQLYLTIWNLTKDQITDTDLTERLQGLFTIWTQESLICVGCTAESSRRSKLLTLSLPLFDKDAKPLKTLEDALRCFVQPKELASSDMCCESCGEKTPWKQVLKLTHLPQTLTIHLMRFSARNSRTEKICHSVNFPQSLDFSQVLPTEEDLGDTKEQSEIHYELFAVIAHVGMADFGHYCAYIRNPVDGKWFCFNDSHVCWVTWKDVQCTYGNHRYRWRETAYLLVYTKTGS


What was measured:
Conditions in all cases: both partners purified
His6-Hs.USP18 (16-372) [1] = biological target: T1, His6-Hs.USP18 (16-372); test: covalent labelling by an activity-based probe (SDS-PAGE); recombinant USP18 (2 μM), USP5 (1 μM) or USP16 (0.45 μM) with Ac-Ubl-PA probes (10 μM), 3 h, room temperature; higher band on SDS-PAGE, SYPRO Ruby staining
His6-Mm.USP18 (46-368) [2] = biological target: T2, His6-Mm.USP18 (46-368); test: as above
His6-Hs.USP18 (16-372) [3] = biological target: T1, His6-Hs.USP18 (16-372); test: SPR; BIAcore 3000; mouse and human USP18 immobilised via the N-terminal His6 tag on an NTA chip; 25 °C; 50 mM HEPES, 150 mM NaCl, 0.05 mM EDTA, 0.5 mM DTT, 0.01% P20, pH 7.5; 20 μL/min; Langmuir 1:1 model with drift
His6-Mm.USP18 (46-368) [4] = biological target: T2, His6-Mm.USP18 (46-368); test: as above

binding result (His6-Hs.USP18 (16-372) [1])	binding result (His6-Mm.USP18 (46-368) [2])	binding result (His6-Hs.USP18 (16-372) [3])	binding result (His6-Mm.USP18 (46-368) [4])	Binder
binds	binds			Ac-mISG15CTD[WT]-PA (domain or fragment, mouse, N-terminal acetyl; C-terminal propargylamine (PA) warhead replacing Gly155, C-terminal domain of mouse ISG15, Leu80~Gly154; also called Ac-mISG15CTD-PA; WT probe; source: synthetic (solid-phase peptide synthesis), RP-HPLC purified) LSILVRNERGHSNIYEVFLTQTVDTLKKKVSQREQVHEDQFWLSFEGRPMEDKELLGEYGLKPQSTVIKHLRLRG
		binds	binds	Ac-mISG15CTD-OH (wild type) (domain or fragment, mouse, N-terminal acetyl, C-terminal domain of mouse ISG15, Leu80~Gly154; also called Ac-mISG15CTD[WT]-OH; source: synthetic (solid-phase peptide synthesis), RP-HPLC purified) LSILVRNERGHSNIYEVFLTQTVDTLKKKVSQREQVHEDQFWLSFEGRPMEDKELLGEYGLKPQSTVIKHLRLRG
